Laboratory results: patent US20120316071A1 (published 2012)
Where a chain is given by its changes, count along the chain named. Numbers in names are those of the source.

B1: Fab VH5-51_IGHD5-18*01>3_IGHJ4*01 G100K/G104T & V3-4_IGLJ1*01 V91I (Fab, V domains shown)
VH: EVQLVQSGAEVKKPGESLKISCKGSGYSFTSYWIGWVRQMPGKGLEWMGIIYPGDSDTRYSPSFQGQVTISADKSISTAYLQWSSLKASDTAMYYCARRKYSYTYDYFDYWGQGTLVTVSS
VL: QTVVTQEPSFSVSPGGTVTLTCGLSSGSVSTSYYPSWYQQTPGQAPRTLIYSTNTRSSGVPDRFSGSILGNKAALTITGAQADDESDYYCILYMGSGISYVFGTGTKVTVL
notes: Fab; expressed with CH1 (His and Flag tags) and lambda CL from the expression plasmids; also called H:KT & V91I
B2: Fab VH5-51_IGHD5-18*01>3_IGHJ4*01 G100K/G104T & V3-4_IGLJ1*01 V91L (Fab, V domains shown)
VH: B1 VH
VL: B1 VL with I91L
notes: Fab; expressed with CH1 (His and Flag tags) and lambda CL from the expression plasmids; also called H:KT & V91L
B3: Fab VH5-51_IGHD5-18*01>3_IGHJ4*01 G100K/G104T & V3-4_IGLJ1*01 V91N (Fab, V domains shown)
VH: B1 VH
VL: B1 VL with I91N
notes: Fab; expressed with CH1 (His and Flag tags) and lambda CL from the expression plasmids; also called H:KT & V91N
B4: Fab VH5-51_IGHD5-18*01>3_IGHJ4*01 G100K/G104T & V3-4_IGLJ1*01 V91R (Fab, V domains shown)
VH: B1 VH
VL: B1 VL with I91R
notes: Fab; expressed with CH1 (His and Flag tags) and lambda CL from the expression plasmids; also called H:KT & V91R
B5: Fab VH5-51_IGHD5-18*01>3_IGHJ4*01 G100K/G104T & V3-4_IGLJ1*01 V91S (Fab, V domains shown)
VH: B1 VH
VL: B1 VL with I91S
notes: Fab; expressed with CH1 (His and Flag tags) and lambda CL from the expression plasmids; also called H:KT & V91S
B6: Fab VH5-51_IGHD5-18*01>3_IGHJ4*01 G100K/G104T & V3-4_IGLJ1*01 V91T (Fab, V domains shown)
VH: B1 VH
VL: B1 VL with I91T
notes: Fab; expressed with CH1 (His and Flag tags) and lambda CL from the expression plasmids; also called H:KT & V91T
B7: Fab VH5-51_IGHD5-18*01>3_IGHJ4*01 G100K/G104T & V3-4_IGLJ1*01 V91W (Fab, V domains shown)
VH: B1 VH
VL: B1 VL with I91W
notes: Fab; expressed with CH1 (His and Flag tags) and lambda CL from the expression plasmids; also called H:KT & V91W
B8: Fab VH1-46_IGHD6-6*01_IGHJ1*01 S102A/S103P/S104F/H111F G56H & L6_IGKJ1*01 (Fab, V domains shown)
VH: QVQLVQSGAEVKKPGASVKVSCKASGYTFTSYYMHWVRQAPGQGLEWMGIINPSGHSTSYAQKFQGRVTMTRDTSTSTVYMELSSLRSEDTAVYYCAREEYAPFSAEYFQFWGQGTLVTVSS
VL: not shown
notes: Fab from E. coli; CH1 (with His and Flag tags) and kappa CL come from the expression plasmids; also called APFF G56H
B9: Fab VH1-46_IGHD6-6*01_IGHJ1*01 S102A/S103P/S104F/H111F G56I & L6_IGKJ1*01 (Fab, V domains shown)
VH: B8 VH with H56I
VL: not shown
notes: Fab from E. coli; CH1 (with His and Flag tags) and kappa CL come from the expression plasmids; also called APFF G56I
B10: Fab VH1-46_IGHD6-6*01_IGHJ1*01 & L6_IGKJ1*01 (Fab, V domains shown)
VH: B8 VH with H56G, A102S, P103S, F104S, F111H
VL: not shown
notes: Fab expressed in E. coli; VH was cloned into Plasmid A (heavy chain CH1 constant region, His6 and Flag tags) and VL into Plasmid C (kappa CL); also called parental; wildtype
B11: Fab VH1-46_IGHD6-6*01_IGHJ1*01 S102A/S103P/S104F (APF) & L6_IGKJ1*01 (Fab, V domains shown)
VH: B8 VH with H56G, F111H
VL: not shown
notes: Fab with CH1 (Plasmid A, His6 and Flag tags) and kappa CL (Plasmid C); also called H:APF & L:wt; APF triple mutant
B12: Fab VH1-46_IGHD6-6*01_IGHJ1*01 S102A/S103P/S104F (APF) & L6_IGKJ1*01 S31K (Fab, V domains shown)
VH: B8 VH with H56G, F111H
VL: EIVLTQSPATLSLSPGERATLSCRASQSVSKYLAWYQQKPGQAPRLLIYDASNRATGIPARFSGSGSGTDFTLTISSLEPEDFAVYYCQQRSNWPPWTFGQGTKVEIKR
notes: Fab with CH1 (Plasmid A, His6 and Flag tags) and kappa CL (Plasmid C)
B13: Fab VH1-46_IGHD6-6*01_IGHJ1*01 S102A/S103P/S104F/H111F (APFF) & L6_IGKJ1*01 (Fab, V domains shown)
VH: B8 VH with H56G
VL: not shown
notes: Fab with CH1 (Plasmid A, His6 and Flag tags) and kappa CL (Plasmid C); also called H:APFF & L:wt
B14: Fab VH1-46_IGHD6-6*01_IGHJ1*01 S102A/S103P/S104F/H111F G56H (APFF G56H) & L6_IGKJ1*01 (Fab, V domains shown)
VH: B8 VH
VL: not shown
notes: as for B12
B15: Fab VH1-46_IGHD6-6*01_IGHJ1*01 S102A/S103P/S104F/H111F I51V/N52L/S54T/G56H (APFF VLTH) & L6_IGKJ1*01 S28N/S30D/S31H (NDH) (Fab, V domains shown)
VH: B8 VH with I51V, N52L, S54T
VL: B12 VL with S28N, S30D, K31H
notes: Fab with CH1 (Plasmid A, His6 and Flag tags) and kappa CL (Plasmid C); also called H:APFF VLTH & L:NDH
B16: Fab VH1-46_IGHD6-6*01_IGHJ1*01 S102A/S103P/S104F/H111Y (APFY) & L6_IGKJ1*01 (Fab, V domains shown)
VH: B8 VH with H56G, F111Y
VL: not shown
notes: as for B12
B17: Fab VH1-46_IGHD6-6*01_IGHJ1*01 S104F & L6_IGKJ1*01 (Fab, V domains shown)
VH: B8 VH with H56G, A102S, P103S, F111H
VL: not shown
notes: as for B12
B18: Fab VH1-46_IGHD6-6*01_IGHJ1*01 S102A/S103P/S104F/H111F I51V/N52L/S54T/G56H (APFF VLTH) & L6_IGKJ1*01 S28N/S30D/S31H S52L/A55S (NDH LS) (Fab, V domains shown)
VH: B8 VH with I51V, N52L, S54T
VL: B12 VL with S28N, S30D, K31H, S52L, A55S
notes: Fab with CH1 (Plasmid A, His6 and Flag tags) and kappa CL (Plasmid C); also called H:APFF VLTH & L:NDH LS

The binders below were run against T1, Recombinant Human DLL4 (delta-like protein 4) (human, UniProt Q9NR61 27-524) (assay: ECL (MSD) binding assay, immobilised DLL4, 10 nM Fab;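 further: fab binding read as electrochemiluminescence via a TAG-labelled detection antibody, 1 h incubations at 20 °C, antigen signal compared with each well's blank, ratio of at least 4 scored as binder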).
T1 construct: Bought recombinant human DLL4 (R&D Systems Cat#1506-D4/CF); also called rHuman DLL4

Going from B1 to B2, the “ECL Signal [10 nM Fab]” value falls from 51200 to 41600.

Going from B3 to B4, the “ECL Signal [10 nM Fab]” value falls from 46700 to 13400.

Compared with B5, B6 is higher in “ECL Signal [10 nM Fab]” value: 32100 for the first, 32700 for the second.

In the case of B7, the “ECL Signal [10 nM Fab]” value is reported as 12500.

The binders below were run against T1, Recombinant Human DLL4 (delta-like …) (assay: ELISA, DLL4-coated plate, 100 nM Fab).

First: B1
Second: B2
The “ELISA Signal [100 nM Fab]” value of the first is lower: 0.01 for the first, 0.02 for the second.

B3 and B4 are the same in “ELISA Signal [100 nM Fab]” value: 0 for the first, 0 for the second.

B5 and B6 are the same in “ELISA Signal [100 nM Fab]” value: 0.01 for the first, 0.01 for the second.

B7 was tested, and the “ELISA Signal [100 nM Fab]” value was 0.

Each binder was assayed against T2, Recombinant Human DLL4 (delta-like protein 4) (human, UniProt Q9NR61 27-524) (assay: ELISA on plate-coated DLL4, 100 nM Fab).
T2 construct: Bought recombinant protein (R&D Systems Cat#1506-D4/CF); also called rHuman DLL4

Going from B8 to B9, the “ELISA signal” value falls from 0.65 to 0.23.

These binders were tested against T2, Recombinant Human DLL4 (delta-like …) (assay: ECL 96-well plate assay on immobilised DLL4, 10 nM Fab).

First: B8
Second: B9
The “ECL signal” value of the first is lower: 68800 for the first, 77000 for the second.

What follows are binders tested against T3, Recombinant Human DLL4 (delta-like protein 4) (human, UniProt Q9NR61 27-524) (assay: SPR, Fab on recombinant human DLL4).
T3 construct: Bought recombinant human DLL4 (R&D Systems Cat#1506-D4/CF); also called rHuman DLL4; Delta-like ligand 4

Compared with B10, B11 is 6-fold lower in Kd: 730 nM for the first, 122 nM for the second. The second binds more tightly here.

First: B12
Second: B13
The Kd of the first is 1.6-fold higher: 112 nM for the first, 70.6 nM for the second.

Going from B14 to B15, the Kd falls from 32.7 nM to 2.7 nM (12-fold).

Compared with B16, B17 is 4.1-fold higher in Kd: 93.1 nM for the first, 380 nM for the second.

With B18 the Kd was 1.7 nM.

Compared with B10, B11 is 2.1-fold lower in koff: 0.101 s⁻¹ for the first, 0.0492 s⁻¹ for the second.

B12 and B13 are within 1.5-fold of each other in koff: 0.0392 s⁻¹ for the first, 0.03 s⁻¹ for the second.

Compared with B14, B15 is 8.9-fold lower in koff: 0.0101 s⁻¹ for the first, 0.00113 s⁻¹ for the second.

Going from B16 to B17, the koff rises from 0.0317 s⁻¹ to 0.19 s⁻¹ (6-fold).

B18 gave a koff of 0.00109 s⁻¹.

First: B10
Second: B11
The kon of the first is 2.5-fold lower: 163000 M⁻¹ s⁻¹ for the first, 405000 M⁻¹ s⁻¹ for the second.

B12 and B13 are within 1.5-fold of each other in kon: 350000 M⁻¹ s⁻¹ for the first, 425000 M⁻¹ s⁻¹ for the second.

B14 and B15 are within 1.5-fold of each other in kon: 351000 M⁻¹ s⁻¹ for the first, 430000 M⁻¹ s⁻¹ for the second.

B16 and B17 are within 1.5-fold of each other in kon: 340000 M⁻¹ s⁻¹ for the first, 500000 M⁻¹ s⁻¹ for the second.

Binder B18 has a kon of 684000 M⁻¹ s⁻¹.
